Source: paper PMC2195916

Key:
[1] = biological target: C4b-binding protein (C4bp) (human) (UniProt P04003); experiment: flow cytometry on cells
[2] = biological target: Por1B of N. gonorrhoeae strain MS11 (Neisseria gonorrhoeae strain MS11); experiment: flow cytometry on cells

| Substance | percent decrease of C4bp binding to MS11 (C4b in 60-fold molar excess) [1] [%] | percent decrease of binding in 575 mM NaCl [2] [%] | percent decrease of binding with 125 units of heparin [2] [%] |
| --- | --- | --- | --- |
| C4b (natural protein) | 50 |  |  |
| C4b-binding protein (C4bp) (from UniProt P04003 49-597; P20851 18-252) (complex) |  | 85 | > 90 |
